Test results reported in patent publication US12072338B2, “Pharmaceutical peptides for the treatment of inflammatory diseases” (PROTAGONISTS LTD., priority 2007, dated 2024).

Experiments:
GRO-β = biological target: T1, GRO-β (Homo sapiens, UniProt P19875); assay: Micro-array analysis of chemokine binding peptides: GRO-β
T1 construct: purchased 300-39
T1 sequence (P19875 35-107): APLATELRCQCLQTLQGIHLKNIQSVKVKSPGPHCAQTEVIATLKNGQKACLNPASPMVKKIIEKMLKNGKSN
Description: (§1) (1) Printing: Chemokine (CK) solution (in water) was serially diluted with Print Reagent (GenTel BioSurfaces USA) to final concentrations of 50 μg and 25 μg/ml. BSA/BSA-Biotin control solutions (in water) were diluted with Print Reagent to 100 μg/ml. Amplified stock of M13 phage control (M13KEgIII Cloning Vector, New England Biolabs, Cat.No.E8101S) was stored in Tris Buffered Saline (TBS; pH7.5, 4° C.) and diluted with Print Reagent to the working titre (10^8 pfu/μl). An automated spotting robot (16 pin print tool, 0.4 mm head; BioRobotics, UK) was used to print the CK/BSA control/M13 control, 5 repeats per sample (CK 25 μg/ml and 50 μg/ml; BSA 100 μg/ml; M13 20 μl), on PATH Protein Microarray Slides (GenTel, Prod.No. 2-1005/-1025) at […], and 50-70% relative humidity. Printed micro-array slides were stored at Room Temperature (RT) or 4° C. for at least 24 h before use.
(§2) (2) Blocking: Block Buffer (500 μl/partition; PATHblock, GenTel, Prod.No. 2-1014) was applied to the slide for 1 hour at room temp (RT). After removal of Block Buffer, the slide was air dried for 25 minutes;
(§3) (3) Phage Presented Peptide Binding: Amplified recombinant phage stock was stored in TBS and diluted with Wash Buffer to working titer (10^7 pfu/μl). Recombinant phage suspension (300 μl) was applied per partition and incubated at RT for 1 hour with gentle agitation.
(§4) (4) First Washing: The slides were washed twice with Wash Buffer 300 μl/partition).
(§5) (5) Primary Antibody (Ab) Labeling: The slides were incubated with the Primary Ab (1 mg/ml diluted ×2500 (Wash Reagent), 300 μl; Mouse Anti-M13 monoclonal Ab; Amersham Biosciences, UK; Product Code 27-9420-01) for 45 minutes at RT.
(§6) (6) Second Washing: The slides were washed twice with Wash Buffer (300 μl/partition).
(§7) (7) Secondary Ab Labeling: The slides were incubated with Secondary Ab (1.5 mg/ml diluted ×5000 (Wash Reagent), 300 μl; Cy3-conjugated AffiniPure Goat Anti-Mouse IgG; Jackson ImmunoReserch Labs, USA; Product Code 115-165-062).
(§8) (8) Third Washing: The slides were washed twice with Wash Buffer (300 μl/partition).
(§9) (9) Rinse: the slides were rinsed twice with Rinse Buffer (PATHrinse, GenTel, Prod.No. 2-1018) then dried well.
(§10) (10) Scanning: The peptide-bound, labeled slide was scanned (Laser Intensity 80%, Gain 80%, Resolution 10 μm) with a ScanArray Life Scanner (Packard BioChip Technologies, USA).
(§11) (11) Analysis: Quantitative analysis of micro-array was performed by the SpotReader program of Niles Scientific (USA) and presented as Relative Fluorescence (RF) as a function of CK concentration. Micro-array readout (Cy3 fluorescence) was quantified to determine the relative binding affinities of a CBP for the CKs and by inference, the specificity of the CBP for binding to a CK.

IL-8 = assay: Micro-array analysis of chemokine binding peptides: IL-8
Description: as §1, §2, §3, §4, §5, §6, §7, §8, §9, §10, §11

Mig = biological target: T2, Mig (Homo sapiens, UniProt Q07325); assay: Micro-array analysis of chemokine binding peptides: Mig; settings: limit = start of the upper 75% of that peptide's response range
T2 construct: purchased 300-26
T2 sequence (Q07325 23-125): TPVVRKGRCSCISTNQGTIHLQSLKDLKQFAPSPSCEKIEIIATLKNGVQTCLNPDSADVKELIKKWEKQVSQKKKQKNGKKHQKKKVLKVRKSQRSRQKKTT
Description: as §1, §2, §3, §4, §5, §6, §7, §8, §9, §10, §11

I-TAC = biological target: T3, I-TAC (Homo sapiens, UniProt O14625); assay: Micro-array analysis of chemokine binding peptides: I-TAC; settings: limit = start of the upper 75% of that peptide's response range
T3 construct: purchased 300-46
T3 sequence (O14625 22-94): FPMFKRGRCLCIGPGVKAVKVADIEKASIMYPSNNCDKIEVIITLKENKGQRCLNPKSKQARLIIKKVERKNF
Description: as §1, §2, §3, §4, §5, §6, §7, §8, §9, §10, §11

MCP-1 = biological target: T4, MCP-1 (Homo sapiens, UniProt P13500); assay: Micro-array analysis of chemokine binding peptides: MCP-1
T4 construct: purchased 300-04
Description: as §1, §2, §3, §4, §5, §6, §7, §8, §9, §10, §11

MCP-2 = biological target: T5, MCP-2 (Homo sapiens, UniProt P80075); assay: Micro-array analysis of chemokine binding peptides: MCP-2
T5 construct: purchased 300-15
T5 sequence (P80075 24-99): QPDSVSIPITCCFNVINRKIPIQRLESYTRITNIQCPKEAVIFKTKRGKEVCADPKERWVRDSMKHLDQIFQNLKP
Description: as §1, §2, §3, §4, §5, §6, §7, §8, §9, §10, §11

MCP-4 = biological target: T6, MCP-4 (Homo sapiens, UniProt Q99616); assay: Micro-array analysis of chemokine binding peptides: MCP-4
T6 construct: purchased 300-24
Description: as §1, §2, §3, §4, §5, §6, §7, §8, §9, §10, §11

RANTES = biological target: T7, RANTES (Homo sapiens, UniProt P13501); assay: Micro-array analysis of chemokine binding peptides: RANTES
T7 construct: purchased 300-06
T7 sequence (P13501 24-91): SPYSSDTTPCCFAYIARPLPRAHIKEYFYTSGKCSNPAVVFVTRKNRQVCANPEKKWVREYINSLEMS
Description: as §1, §2, §3, §4, §5, §6, §7, §8, §9, §10, §11

Eotaxin = biological target: T8, Eotaxin (Homo sapiens, UniProt P51671); assay: Micro-array analysis of chemokine binding peptides: Eotaxin
T8 construct: purchased 300-21
Description: as §1, §2, §3, §4, §5, §6, §7, §8, §9, §10, §11

Eotaxin 2 = biological target: T9, Eotaxin 2 (Homo sapiens, UniProt O00175); assay: Micro-array analysis of chemokine binding peptides: Eotaxin 2
T9 construct: purchased 300-33
T9 sequence (O00175 27-119): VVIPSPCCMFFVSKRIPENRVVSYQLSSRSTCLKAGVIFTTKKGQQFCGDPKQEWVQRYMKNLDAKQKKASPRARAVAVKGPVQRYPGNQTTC
Description: as §1, §2, §3, §4, §5, §6, §7, §8, §9, §10, §11

Eotaxin 3 = biological target: T10, Eotaxin 3 (Homo sapiens, UniProt Q9Y258); assay: Micro-array analysis of chemokine binding peptides: Eotaxin 3
T10 construct: purchased 300-48
T10 sequence (Q9Y258 24-94): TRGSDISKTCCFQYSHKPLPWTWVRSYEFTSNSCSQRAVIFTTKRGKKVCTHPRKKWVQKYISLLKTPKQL
Description: as §1, §2, §3, §4, §5, §6, §7, §8, §9, §10, §11

BCA-1 = biological target: T11, BCA-1 (Homo sapiens, UniProt O43927); assay: Micro-array analysis of chemokine binding peptides: BCA-1
T11 construct: purchased 300-47
T11 sequence (O43927 23-109): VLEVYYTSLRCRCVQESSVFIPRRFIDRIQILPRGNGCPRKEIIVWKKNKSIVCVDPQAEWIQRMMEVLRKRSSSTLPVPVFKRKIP
Description: as §1, §2, §3, §4, §5, §6, §7, §8, §9, §10, §11

TECK = biological target: T12, TECK (Homo sapiens, UniProt O15444); assay: Micro-array analysis of chemokine binding peptides: TECK
T12 construct: purchased 300-45
T12 sequence (O15444 24-150): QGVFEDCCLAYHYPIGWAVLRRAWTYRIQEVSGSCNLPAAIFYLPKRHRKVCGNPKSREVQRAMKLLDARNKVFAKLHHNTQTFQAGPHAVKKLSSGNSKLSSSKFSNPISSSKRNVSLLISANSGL
Description: as §1, §2, §3, §4, §5, §6, §7, §8, §9, §10, §11

Fractalkine = biological target: T13, Fractalkine (Homo sapiens, UniProt P78423); assay: Micro-array analysis of chemokine binding peptides: Fractalkine
T13 construct: purchased 300-31
T13 sequence (P78423 25-100 limits assumed): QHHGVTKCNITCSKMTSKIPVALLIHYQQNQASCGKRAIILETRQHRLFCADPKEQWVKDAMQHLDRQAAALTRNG
Description: as §1, §2, §3, §4, §5, §6, §7, §8, §9, §10, §11

Lymphotactin = biological target: T14, Lymphotactin (Homo sapiens, UniProt P47992); assay: Micro-array analysis of chemokine binding peptides: Lymphotactin
T14 construct: purchased 300-20
T14 sequence (P47992 22-114): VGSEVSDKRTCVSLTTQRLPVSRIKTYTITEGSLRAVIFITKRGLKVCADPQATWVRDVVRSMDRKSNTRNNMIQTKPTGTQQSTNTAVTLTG
Description: as §1, §2, §3, §4, §5, §6, §7, §8, §9, §10, §11

Exodus-2 = biological target: T15, Exodus-2 (Homo sapiens, UniProt O00585); assay: Micro-array analysis of chemokine binding peptides: Exodus-2
T15 construct: purchased 300-35
T15 sequence (O00585 24-134): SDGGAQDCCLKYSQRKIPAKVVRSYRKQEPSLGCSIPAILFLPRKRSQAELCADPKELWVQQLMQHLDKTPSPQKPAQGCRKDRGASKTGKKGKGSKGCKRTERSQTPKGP
Description: as §1, §2, §3, §4, §5, §6, §7, §8, §9, §10, §11

IP-10 = biological target: T16, IP-10 (Homo sapiens, UniProt P02778); assay: Micro-array analysis of chemokine binding peptides: IP-10; settings: limit = start of the upper 75% of that peptide's response range
T16 construct: purchased 300-12
T16 sequence (P02778 22-98): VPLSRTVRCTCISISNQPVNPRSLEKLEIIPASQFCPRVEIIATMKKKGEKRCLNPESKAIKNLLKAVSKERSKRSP
Description: as §1, §2, §3, §4, §5, §6, §7, §8, §9, §10, §11

I-309 = biological target: T17, I-309 (Homo sapiens, UniProt P22362); assay: Micro-array analysis of chemokine binding peptides: I-309; settings: limit = start of the upper 75% of that peptide's response range
T17 construct: purchased 300-37
T17 sequence (P22362 24-96): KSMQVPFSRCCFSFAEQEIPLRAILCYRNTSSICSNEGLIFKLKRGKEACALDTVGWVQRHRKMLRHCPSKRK
Description: as §1, §2, §3, §4, §5, §6, §7, §8, §9, §10, §11

SDF1 = assay: Micro-array analysis of chemokine binding peptides: SDF1 (isoform not given)
Description: as §1, §2, §3, §4, §5, §6, §7, §8, §9, §10, §11

[1] = limit = start of the upper 75% of that peptide's response range

T6 sequence (Q99616 17-98): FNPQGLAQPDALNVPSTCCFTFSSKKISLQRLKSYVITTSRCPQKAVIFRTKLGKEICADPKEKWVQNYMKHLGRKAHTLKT
T8 sequence (P51671 24-97): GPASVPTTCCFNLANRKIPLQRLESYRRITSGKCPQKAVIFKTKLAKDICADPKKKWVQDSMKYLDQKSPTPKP
IL-8, sequence (P10145 28-99 limits assumed): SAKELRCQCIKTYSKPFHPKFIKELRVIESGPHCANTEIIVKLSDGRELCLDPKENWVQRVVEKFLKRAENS
SDF1, sequence (P48061 22-89 limits assumed): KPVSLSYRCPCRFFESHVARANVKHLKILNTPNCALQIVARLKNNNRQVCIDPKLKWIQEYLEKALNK
T4 sequence (P13500 24-99): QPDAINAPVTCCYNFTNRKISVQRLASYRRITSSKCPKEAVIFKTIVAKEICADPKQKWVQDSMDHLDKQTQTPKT

## SYYDDVGL [Ph-p27]
GRO-β
  binding to GRO-β, stated in words: bound
IL-8
  binding to IL-8, stated in words: bound
Mig
  binding to Mig with relatively high affinity (Relative Fluorescence Units): > 15,000 RFU
I-TAC
  binding to I-TAC with relatively high affinity (Relative Fluorescence Units): > 15,000 RFU
MCP-1
  binding to MCP-1, stated in words: bound
MCP-2
  binding to MCP-2, stated in words: bound
MCP-4
  binding to MCP-4, stated in words: bound
RANTES
  binding to RANTES, stated in words: bound
Eotaxin
  binding to Eotaxin, stated in words: bound
Eotaxin 2
  binding to Eotaxin 2, stated in words: bound
Eotaxin 3
  binding to Eotaxin 3, stated in words: bound
BCA-1
  binding to BCA-1, stated in words: bound
TECK
  binding to TECK, stated in words: bound
Fractalkine
  binding to Fractalkine, stated in words: bound
Lymphotactin
  binding to Lymphotactin, stated in words: bound
Exodus-2
  binding to Exodus-2, stated in words: bound

## WVFG (listed as Homo sapiens) [Ph-p8.4]
IL-8; [1]
  binding to IL-8 with relatively high affinity (Relative Fluorescence Units): > 15,000 RFU
Mig
  binding to Mig with relatively high affinity (Relative Fluorescence Units): > 15,000 RFU
IP-10
  binding to IP-10 with relatively high affinity (Relative Fluorescence Units): > 15,000 RFU
I-TAC
  binding to I-TAC with relatively high affinity (Relative Fluorescence Units): > 15,000 RFU
I-309
  binding to I-309 with relatively high affinity (Relative Fluorescence Units): > 15,000 RFU
MCP-2; [1]
  binding to MCP-2 with relatively high affinity (Relative Fluorescence Units): > 15,000 RFU
MCP-4; [1]
  binding to MCP-4 with relatively high affinity (Relative Fluorescence Units): > 15,000 RFU
Eotaxin; [1]
  binding to Eotaxin with relatively high affinity (Relative Fluorescence Units): > 15,000 RFU
Eotaxin 3; [1]
  binding to Eotaxin 3 with relatively high affinity (Relative Fluorescence Units): > 15,000 RFU
BCA-1
  binding to BCA-1, stated in words: bound
TECK
  binding to TECK, stated in words: bound
Fractalkine
  binding to Fractalkine, stated in words: bound
Lymphotactin
  binding to Lymphotactin, stated in words: bound
SDF1
  binding to SDF1 (isoform not given), stated in words: bound
